The results in this text go back to the supplement of paper PMC12042874.

± gives the uncertainty stated by the source.

The data set in a line: amyloid nucleation score (Sup35N fusion, yeast selection) (log enrichment); library NNK1; higher = more nucleation; inactive = no reads after selection. Put shortly: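 Three technical output replicates were used for random libraries. Psi-negative yeast expressing peptides of 20 random codons fused to Sup35N were induced with 100 μM copper sulfate for 24 hours and grown 7 days at 30°C on medium lacking adenine and uracil, and input and output plasmid inserts were Illumina-sequenced, excluding sequences with under 100 input reads. The nucleation score is the DiMSum log enrichment of output over input reads, centred on the mode score of non-aggregating sequences.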

Consider IAMSIKWRRW, for which the amyloid nucleation score stood at 2.8 ± 0.093.
For RMHRTDWASIHKDGRPQRRF, the amyloid nucleation score worked out at 1.23 ± 0.76.
Take NLKVESPGNGSWICTLEWVW: the amyloid nucleation score came out at 6.645 ± 0.054.
Substance MYTSRQNSARNRKLNSIAGF had an amyloid nucleation score of -0.721 ± 0.77.
Take TTDSVDDTRKYAYGFIACGV: the amyloid nucleation score was found to be 0.114 ± 0.47.
As for RVYYLMDLIACCPYSLGHRN, the amyloid nucleation score stood at 8.606 ± 0.051.
Turning to SWFTVRCDDC, the amyloid nucleation score result is “inactive”.
In turn, INVNRG came in with an amyloid nucleation score of 0.239 ± 0.56.
On to YSRSVGYRRYFI, for which the amyloid nucleation score result is “inactive”.
The substance VLPCSGQA had an amyloid nucleation score of 0.79 ± 0.26.
With YKWGWAVYHIGHGCRVWRWT, the amyloid nucleation score is 1.49 ± 0.4.
For VWGINILMSFPIV, the amyloid nucleation score was found to be 5.674 ± 0.053.
Take CVVLMMGVPAKAGLLLLHWS: the amyloid nucleation score worked out at 0.297 ± 0.35.
In the case of TWARRFYATRVTTCLNQRVL, the amyloid nucleation score was found to be 0.416 ± 0.81.
On to CTPVT, for which the amyloid nucleation score turned out to be 0.887 ± 1.
As to HYTLIGIY, the amyloid nucleation score entry is “inactive”.
CNMHATETLNIRCVNSDAC registered an amyloid nucleation score of 0.046 ± 1.6.
In the case of NTGRISYFFVVSNPSPYSLR, the amyloid nucleation score is 3.75 ± 0.058.
In turn, CCADPMHYTFHSSNLVFPLM had an amyloid nucleation score of 0.294 ± 0.37.
With EKGLEFHLWLRPVLRACVGY, the amyloid nucleation score came out at 1.01 ± 1.1.
Substance VFYGCVDESCDLNRLGSVSY came in with an amyloid nucleation score of -0.101 ± 0.54.
Substance NYFFAAACKKVVQGQPCSF returned an amyloid nucleation score of 1.59 ± 0.29.
SVNRCFSAFLSQAIT had an amyloid nucleation score of 0.042 ± 0.53.
Turning to GSCLIRASFQVHMILSSGHL, the amyloid nucleation score result was “inactive”.
As to GGCVGLCFRYSFPTCDSC, the amyloid nucleation score amounted to 1.65 ± 0.42.
On to STKADTSRALVLCRGDC, for which the amyloid nucleation score was -0.18 ± 0.59.
In turn, WHRSIWR yielded an amyloid nucleation score of 0.753 ± 0.56.
LYNVKTGFVRQTDVG showed an amyloid nucleation score of 0.106 ± 0.91.
Substance ICCVVESLCYSVMFKHIS showed an amyloid nucleation score of 4.55 ± 0.079.
HRYRGRNLLILCRNDDWCDF gave an amyloid nucleation score of 1.26 ± 0.47.
As to WPNTPSVTKWTYLFVLHPRM, the amyloid nucleation score was -0.854 ± 0.95.
Consider EWKNGSHMWLQRLGESWNRL, for which the amyloid nucleation score was -0.413 ± 0.35.
LALGPLHSVLRGVINMGYGI: the amyloid nucleation score was -0.88 ± 1.7.
As for GSRLCRMSSSMIGSLRVIWG, the figure is -0.146 ± 0.25; as for TRHCMRLWECKHEMRTAN, -0.647 ± 1.1; as for MRKTFDAVLNAFFCKALFCY, 0.759 ± 0.39.
As for IECMAMCHSVRSCCGSIYDC, the amyloid nucleation score is -0.422 ± 0.38.
In turn, WLWSQLVESCGRVRCSGGSG returned an amyloid nucleation score of 1.37 ± 0.5.
In turn, MMSPR registered an amyloid nucleation score of -0.921 ± 2.4.
Regarding FLDMVVMGCEFRPSGGFSSV, the amyloid nucleation score was -0.156 ± 0.38.
Turning to DTLEVTFGYYDCYGMYKTIT, the amyloid nucleation score was -1.18 ± 1.7.
Consider QCCLNVLDC, for which the amyloid nucleation score amounted to 7.65 ± 0.084.
In turn, SMFNQRWWVSPVVYGLIVWP returned an amyloid nucleation score of 1.33 ± 0.79.
As for WFGLTALGDTFYGLYFCKKL, the amyloid nucleation score is -0.848 ± 0.78.
The substance HRITSFVYYFGLSSEFYIYP had an amyloid nucleation score of 0.009 ± 1.1.
Substance RRGSCLRFKV had an amyloid nucleation score of 0.859 ± 0.97.
CVFVRMMCTRFAAHHCVLSG showed an amyloid nucleation score of -0.143 ± 1.2.
For RIFYFPSLRRKGDYNWRMVV, the amyloid nucleation score is 0.27 ± 0.39.
Regarding AQDLPLVTRNCKCMRRHLWV, the amyloid nucleation score is -0.171 ± 0.42.
For SVFISNERL, the amyloid nucleation score result was “inactive”.
As to VHTGLVSEIRRDKREGAYPE, the amyloid nucleation score stood at 0.128 ± 0.99.
VLLCNFRSRVWRYRCFKAFS registered an amyloid nucleation score of 0.93 ± 0.19.
On to IFAQKGYTSRFSILM, for which the amyloid nucleation score was -0.565 ± 0.58.
Take TGLYSYIGFSDGYCVYEMIT: the amyloid nucleation score is -0.122 ± 1.6.
Substance YPCNLFCMMTLLNYLGSSVA came in with an amyloid nucleation score of 6.49 ± 0.074.
On to LYTITLLIALALTTEQAPPR, for which the amyloid nucleation score amounted to 1.67 ± 0.28.
As for SWFYYAKC, the amyloid nucleation score turned out to be 0.05 ± 0.76.
Take MICKMNYQVRIPINFSYCLN: the amyloid nucleation score came out at 2.43 ± 0.15.
As to LGIYNGEASRWYRESTPAQ, the amyloid nucleation score is -0.443 ± 0.92.
The substance FRVYFIVRVPYI had an amyloid nucleation score of 1.36 ± 0.52.
Consider MAGSSMTISVLYSWIP, for which the amyloid nucleation score entry is “inactive”.
GRFVEMRLEHYRLNSRENSL had an amyloid nucleation score of -1.75 ± 2.7.
As for WRLLCSITMDWF, the figure is -0.15 ± 0.22; as for DCYREVSYFKFQNTKGSGSW, 3.33 ± 0.14.
Substance LGKQAMC showed an amyloid nucleation score of -1.34 ± 2.4.
The value for TQEKMSVGYYASNSLFWSML was 0.36 ± 1.2; that for YTCYIVKGLVVLTVACGG was -0.225 ± 0.98.
ISVGCF: the amyloid nucleation score was 0.201 ± 0.49.
Turning to VEIYWWGYPPKNSI, the amyloid nucleation score was -0.239 ± 0.39.
For the substance LLMYKKCRQWGCGNVSCSFD, the amyloid nucleation score was found to be 7.086 ± 0.065.
The substance FFVSIELITTRLLISQHNSY showed an amyloid nucleation score of -0.689 ± 0.89.
As to TTCLTQNLDQGSLLYKVLPR, the amyloid nucleation score is 1.43 ± 0.18.
As for KSLVKYKWNLTFILY, the entry is “inactive”; as for SLRSPWDRCSFRHFLPFFTM, -0.735 ± 0.69; as for CYWSFKSAVAGPLSSESEGS, 4.4 ± 0.095.
With PFTCCAVVPFSVTFSRVLES, the amyloid nucleation score result was “inactive”.
In the case of RVEKCWAMTDKCIRHRFLTS, the amyloid nucleation score worked out at 0.774 ± 0.48.
In turn, FLICDGSDRQMF returned an amyloid nucleation score of 0.315 ± 0.23.
LLSYPIPDMYSIEATTKRRI showed an amyloid nucleation score of 0.133 ± 1.4.
LVMFMNMSLRYNRGLSLVKR: the amyloid nucleation score was -0.252 ± 0.26.
Substance DGHKGEDSMAKLNFIFRLYS registered an amyloid nucleation score of -0.33 ± 0.38.
Consider CGFALSRQVDILILLADSYD, for which the amyloid nucleation score amounted to 0.167 ± 1.1.
In turn, CTPALLGLAIIQQGNTWLGI showed an amyloid nucleation score of 2.63 ± 0.079.
Regarding DYGIWELSINMSVKYLCWLP, the amyloid nucleation score came to 1.27 ± 0.13.
For MPCFCYTCGRVMLVRIRQTR, the amyloid nucleation score entry was “inactive”.
In the case of EVITNTNGIVWSFDELYSVM, the amyloid nucleation score result is “inactive”.
On to FLMGSYMFTTTVQISHDLMW, for which the amyloid nucleation score is -0.354 ± 0.61.
WAMSTFSVYSKRTFVARWDK returned an amyloid nucleation score of 0.048 ± 0.29.
The substance LSCDVQWLCLESNCE came in with an amyloid nucleation score of 3.96 ± 0.07.
In turn, KLRRSIDTCNVYVWS had an amyloid nucleation score of -0.593 ± 0.23.
As to EDWHVDSFGFSKTSMGTRRL, the amyloid nucleation score stood at 2.49 ± 0.14.
For the substance VTNFNESLGKFSRNTLLRS, the amyloid nucleation score is -0.713 ± 1.1.
Take LRNSHNVGEQFCISVRDSLG: the amyloid nucleation score is 0.007 ± 0.69.
As for HLSSTVITLVPCRLEMYLEG, the figure is 0.55 ± 0.25.
LAMRAMIRNVLFTKSQLHDR returned an amyloid nucleation score of -0.154 ± 0.38.
As for YWLNNYYVVGNIS, the figure is 2.57 ± 0.25.
In turn, YGSAVVRQCFG came in with an amyloid nucleation score of -0.114 ± 0.35.
Turning to WIFSAMVYDSRKLTSYDKSE, the amyloid nucleation score was 0.543 ± 0.32.
The substance SITVVSNEFNVVNVILCGCY returned an amyloid nucleation score of 7.009 ± 0.046.
As for TISYLS, the figure is 0.198 ± 0.39.
Consider KWIGIYINFDGYSVGS, for which the amyloid nucleation score amounted to 7.598 ± 0.044.
As for RHSGDFLVFMYKGVLVWSTG, the figure is 3.24 ± 0.092.
